Experimental findings from US11191771B2, “Combinations of PBD-based antibody drug conjugates with FLT3 inhibitors” (Seagen Inc., priority 2016, dated 2021) are described below.

This assay concerns FLT3/ITD MV4-11 xenografts. The experiment in a line: Survival of FLT3/ITD MV4-11 xenografts. The assay is classed as in vivo. As to conditions: MV4-11 s.c. in SCID mice, quizartinib 0.4 mg/kg daily for 21 days by mouth. On the procedure:
Five million MV4-11 cells were implanted subcutaneously in SCID mice. Tumor growth was monitored throughout the course of the study with bilateral vernier caliper measurements, and mean tumor volumes were calculated using the equation (0.5×[length×width^2]).
Mice with advanced tumor burden were sacrificed upon reaching tumor volumes of greater than 400 mm^3 or showing symptoms of hind limb paralysis, cranial swelling, and/or moribundity.

B1: SGN-CD33A: h2H12EC antibody conjugated to SGD-1910, the pyrrolobenzodiazepine dimer drug-linker (conjugate, chains of the INN, looked up)
VH: QVQLVQSGAEVKKPGASVKVSCKASGYTFTNYDINWVRQAPGQGLEWIGWIYPGDGSTKYNEKFKAKATLTADTSTSTAYMELRSLRSDDTAVYYCASGYEDAMDYWGQGTTVTVSS
VL: DIQMTQSPSSLSASVGDRVTINCKASQDINSYLSWFQQKPGKAPKTLIYRANRLVDGVPSRFSGSGSGQDYTLTISSLQPEDFATYYCLQYDEFPLTFGGGTKVEIK
modifications: PBD dimer payload (talirine)
Regarding B1, the “effect on progression / survival” value (ADC 10 mcg/kg once i.p., FIG. 5) is recorded as “induced delay of progression”. For the same molecule, the median survival time (SGN-CD33A or SGN-CD123A 10 mcg/kg once i.p., untreated 23 days) is given as 31 days.
